Literature values, collected in patent US20250205347A1, “METHODS FOR TREATING INFLAMMATORY CONDITIONS OF THE EYE WITH AN IGF-1R LIGAND CONJUGATED TO A DISEASE-MODIFYING AGENT” (Lirum Therapeutics, Inc., priority 2022, published 2025).
One block for each molecule: values may come before it.

Key:
IGF-1R = IGF-1R (Homo sapiens, UniProt P08069); settings: relative to IGF-1 / IGF-2; Hakuno et al. 2018
IGFBPs = settings: known in the art (U.S. Pat. No. 4,876,242; Francis et al. 1992)

IGF-1R, sequence (P08069 31-736 limits assumed, species assumed): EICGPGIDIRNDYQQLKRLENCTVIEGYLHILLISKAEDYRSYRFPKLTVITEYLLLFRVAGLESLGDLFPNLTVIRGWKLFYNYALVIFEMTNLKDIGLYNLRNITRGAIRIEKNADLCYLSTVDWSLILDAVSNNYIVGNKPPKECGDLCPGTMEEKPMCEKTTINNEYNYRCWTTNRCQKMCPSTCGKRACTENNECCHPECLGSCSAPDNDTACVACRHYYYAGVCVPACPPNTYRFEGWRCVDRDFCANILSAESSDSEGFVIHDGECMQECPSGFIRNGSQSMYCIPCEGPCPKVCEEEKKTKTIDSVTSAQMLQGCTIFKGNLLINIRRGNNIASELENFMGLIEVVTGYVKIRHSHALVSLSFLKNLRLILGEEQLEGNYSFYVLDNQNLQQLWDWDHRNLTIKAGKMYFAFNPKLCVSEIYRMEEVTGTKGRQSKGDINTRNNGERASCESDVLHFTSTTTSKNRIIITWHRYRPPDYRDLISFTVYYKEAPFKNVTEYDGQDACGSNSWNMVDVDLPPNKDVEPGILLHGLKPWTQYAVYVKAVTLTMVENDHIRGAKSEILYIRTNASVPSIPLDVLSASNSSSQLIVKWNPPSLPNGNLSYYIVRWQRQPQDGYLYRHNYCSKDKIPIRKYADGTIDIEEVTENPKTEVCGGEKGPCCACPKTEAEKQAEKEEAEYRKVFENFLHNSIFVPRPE
IGF-1R, sequence (P08069 741-1367 partner limits assumed, species assumed): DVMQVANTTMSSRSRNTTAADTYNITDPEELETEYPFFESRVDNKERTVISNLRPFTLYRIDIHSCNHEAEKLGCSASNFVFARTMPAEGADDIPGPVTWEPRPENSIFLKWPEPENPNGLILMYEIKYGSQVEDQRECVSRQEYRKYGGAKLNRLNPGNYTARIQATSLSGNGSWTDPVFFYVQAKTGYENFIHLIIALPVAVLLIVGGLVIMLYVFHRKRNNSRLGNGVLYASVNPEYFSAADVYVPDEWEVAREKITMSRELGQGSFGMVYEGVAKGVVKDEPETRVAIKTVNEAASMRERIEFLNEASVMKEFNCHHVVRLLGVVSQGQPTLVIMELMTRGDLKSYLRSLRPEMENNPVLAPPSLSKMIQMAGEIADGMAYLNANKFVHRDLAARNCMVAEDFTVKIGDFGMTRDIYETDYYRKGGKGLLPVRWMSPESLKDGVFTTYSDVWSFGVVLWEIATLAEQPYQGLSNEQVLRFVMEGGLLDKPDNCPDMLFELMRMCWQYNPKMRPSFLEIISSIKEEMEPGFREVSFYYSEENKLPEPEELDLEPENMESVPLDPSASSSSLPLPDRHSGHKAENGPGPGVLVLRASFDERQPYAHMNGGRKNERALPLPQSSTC

- binding affinity for IGFBPs as compared to wildtype IGF-1 (IGFBPs): reduced binding affinity for IGFBPs
Molecule: R3-IGF-1: IGF-1 variant (SEQ ID NO:6): glutamic acid in position 3 of human IGF-1 substituted by arginine

- binding affinity for IGFBPs as compared to wildtype IGF-1 (IGFBPs): reduced binding affinity for IGFBPs
Molecule: des(1-3) IGF-1: IGF-1 variant (SEQ ID NO:7) lacking the first three amino acids of human IGF-1

The remaining lines, values behind:

Molecule: insulin: native IGF-1R ligand; mature human insulin, chain A SEQ ID NO:10 and chain B SEQ ID NO:11
- affinity of IGF-1R for the ligand, fold lower (IGF-1R): 50-to 100 fold

B1: IGF132: IGF-1 variant (SEQ ID NO:4): first 17 amino acids of insulin B chain replace first 16 amino acids of human IGF-1 (protein)
chain: FVNQHLCGSHLVEALYLVCGDRGFYFNKPTGYGSSSRRAPQTGIVDECCFRSCDLRRLEMYCAPLKPAKSA
- binding affinity for IGFBPs as compared to wildtype IGF-1 (IGFBPs): reduced binding affinity for IGFBPs
